From patent US20240261333A1, “NOVEL TARGETS FOR ENHANCING ANTI-TUMOR IMMUNITY” (THE BROAD INSTITUTE, INC., priority 2021, published 2024)

T1: B3GNT2 (Homo sapiens, UniProt Q9NY97)
T1 construct: The respective ORFs of candidate genes [CD274 (NM_014143), MCL1 (NM_021960), JUNB (NM_002229), and B3GNT2 (NM_006577)] were synthesized; expressed in transfected cells; host or cells: A375 melanoma cells (lentiviral ORF overexpression)
T1 sequence (Q9NY97 1-397): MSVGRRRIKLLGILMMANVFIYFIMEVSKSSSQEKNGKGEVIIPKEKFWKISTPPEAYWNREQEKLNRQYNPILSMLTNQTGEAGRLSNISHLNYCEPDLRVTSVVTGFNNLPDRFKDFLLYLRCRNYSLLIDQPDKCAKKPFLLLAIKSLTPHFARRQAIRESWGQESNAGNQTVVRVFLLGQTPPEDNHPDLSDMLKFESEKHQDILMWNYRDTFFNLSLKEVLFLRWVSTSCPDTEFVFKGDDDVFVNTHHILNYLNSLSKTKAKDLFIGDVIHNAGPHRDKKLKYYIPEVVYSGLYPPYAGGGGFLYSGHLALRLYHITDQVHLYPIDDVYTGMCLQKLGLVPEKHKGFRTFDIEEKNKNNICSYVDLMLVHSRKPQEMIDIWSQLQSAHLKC

B1: MARS (protein)
chain: MRLFVSDGVPGCLPVLAAAGRARGRAEVLISTVGPEDCVVPFLTRPKVPVLQLDSGNYLFSTSAICRYFFLLSGWEQDDLTNQWLEWEATELQPALSAALYYLVVQGKKGEDVLGSVRRALTHIDHSLSRQNCPFLAGETESLADIVLWGALYPLLQDPAYLPEELSALHSWFQTLSTQEPCQRAAETVLKQQGVLALRPYLQKQPQPSPAEGRAVTNEPEEEELATLSEEEIAMAVTAWEKGLESLPPLRPQQNPVLPVAGERNVLITSALPYVNNVPHLGNIIGCVLSADVFARYSRLRQWNTLYLCGTDEYGTATETKALEEGLTPQEICDKYHIIHADIYRWFNISFDIFGRTTTPQQTKITQDIFQQLLKRGFVLQDTVEQLRCEHCARFLADRFVEGVCPFCGYEEARGDQCDKCGKLINAVELKKPQCKVCRSCPVVQSSQHLFLDLPKLEKRLEEWLGRTLPGSDWTPNAQFITRSWLRDGLKPRCITRDLKWGTPVPLEGFEDKVFYVWFDATIGYLSITANYTDQWERWWKNPEQVDLYQFMAKDNVPFHSLVFPCSALGAEDNYTLVSHLIATEYLNYEDGKFSKSRGVGVFGDMAQDTGIPADIWRFYLLYIRPEGQDSAFSWTDLLLKNNSELLNNLGNFINRAGMFVSKFFGGYVPEMVLTPDDQRLLAHVTLELQHYHQLLEKVRIRDALRSILTISRHGNQYIQVNEPWKRIKGSEADRQRAGTVTGLAVNIAALLSVMLQPYMPTVSATIQAQLQLPPPACSILLTNFLCTLPAGHQIGTVSPLFQKLENDQIESLRQRFGGGQAKTSPKPAVVETVTTAKPQQIQALMDEVTKQGNIVRELKAQKADKNEVAAEVAKLLDLKKQLAVAEGKPPEAPKGKKKK
B2: CCT2 (protein)
chain: MDKILLSSGRDASLMVTNDGATILKNIGVDNPAAKVLVDMSRVQDDEVGDGTTSVTVLAAELLREAESLIAKKIHPQTIIAGWREATKAAREALLSSAVDHGSDEVKFRQDLMNIAGTTLSSKLLTHHKDHFTKLAVEAVLRLKGSGNLEAIHIIKKLGGSLADSYLDEGFLLDKKIGVNQPKRIENAKILIANTGMDTDKIKIFGSRVRVDSTAKVAEIEHAEKEKMKEKVERILKHGINCFINRQLIYNYPEQLFGAAGVMAIEHADFAGVERLALVTGGEIASTFDHPELVKLGSCKLIEEVMIGEDKLIHFSGVALGEACTIVLRGATQQILDEAERSLHDALCVLAQTVKDSRTVYGGGCSEMLMAHAVTQLANRTPGKEAVAMESYAKALRMLPTIIADNAGYDSADLVAQLRAAHSEGNTTAGLDMREGTIGDMAILGITESFQVKRQVLLSAAEAAEVILRVDNIIKAAPRKRVPDHHPC
B3: HSPD1 (protein)
chain: AKDVKFGADARALMLQGVDLLADAVAVTMGPKGRTVIIEQSWGSPKVTKDGVTVAKSIDLKDKYKNIGAKLVQDVANNTNEEAGDGTTTATVLARSIAKEGFEKISKGANPVEIRRGVMLAVDAVIAELKKQSKPVTTPEEIAQVATISANGDKEIGNIISDAMKKVGRKGVITVKDGKTLNDELEIIEGMKFDRGYISPYFINTSKGQKCEFQDAYVLLSEKKISSIQSIVPALEIANAHRKPLVIIAEDVDGEALSTLVLNRLKVGLQVVAVKAPGFGDNRKNQLKDMAIATGGAVFGEEGLTLNLEDVQPHDLGKVGEVIVTKDDAMLLKGKGDKAQIEKRIQEIIEQLDVTTSEYEKEKLNERLAKLSDGVAVLKVGGTSDVEVNEKKDRVTDALNATRAAVEEGIVLGGGCALLRCIPALDSLTPANEDQKIGIEIIKRTLKIPAMTIAKNAGVEGSLIVEKIMQSSSEVGYDAMAGDFVNMVEKGIIDPTKVVRTALLDAAGVASLLTTAEVVVTEIPKEEKDPGMGAMGGMGGGMGGGMF
B4: SLC25A5 (protein)
chain: TDAAVSFAKDFLAGGVAAAISKTAVAPIERVKLLLQVQHASKQITADKQYKGIIDCVVRIPKEQGVLSFWRGNLANVIRYFPTQALNFAFKDKYKQIFLGGVDKRTQFWLYFAGNLASGGAAGATSLCFVYPLDFARTRLAADVGKAGAEREFRGLGDCLVKIYKSDGIKGLYQGFNVSVQGIIIYRAAYFGIYDTAKGMLPDPKNTHIVISWMIAQTVTAVAGLTSYPFDTVRRRMMMQSGRKGTDIMYTGTLDCWRKIARDEGGKAFFKGAWSNVLRGMGGAFVLVLYDEIKKYT
B5: ARHGEF2 (protein, UniProt Q92974 1-986, looked up)
Rho guanine nucleotide …: MSRIESLTRARIDRSRELASKTREKEKMKEAKDARYTNGHLFTTISVSGMTMCYACNKSITAKEALICPTCNVTIHNRCKDTLANCTKVKQKQQKAALLKNNTALQSVSLRSKTTIRERPSSAIYPSDSFRQSLLGSRRGRSSLSLAKSVSTTNIAGHFNDESPLGLRRILSQSTDSLNMRNRTLSVESLIDEAEVIYSELMSDFEMDEKDFAADSWSLAVDSSFLQQHKKEVMKQQDVIYELIQTELHHVRTLKIMTRLFRTGMLEELHLEPGVVQGLFPCVDELSDIHTRFLSQLLERRRQALCPGSTRNFVIHRLGDLLISQFSGPSAEQMCKTYSEFCSRHSKALKLYKELYARDKRFQQFIRKVTRPAVLKRHGVQECILLVTQRITKYPLLISRILQHSHGIEEERQDLTTALGLVKELLSNVDEGIYQLEKGARLQEIYNRMDPRAQTPVPGKGPFGREELLRRKLIHDGCLLWKTATGRFKDVLVLLMTDVLVFLQEKDQKYIFPTLDKPSVVSLQNLIVRDIANQEKGMFLISAAPPEMYEVHTASRDDRSTWIRVIQQSVRTCPSREDFPLIETEDEAYLRRIKMELQQKDRALVELLREKVGLFAEMTHFQAEEDGGSGMALPTLPRGLFRSESLESPRGERLLQDAIREVEGLKDLLVGPGVELLLTPREPALPLEPDSGGNTSPGVTANGEARTFNGSIELCRADSDSSQRDRNGNQLRSPQEEALQRLVNLYGLLHGLQAAVAQQDTLMEARFPEGPERREKLCRANSRDGEAGRAGAAPVAPEKQATELALLQRQHALLQEELRRCRRLGEERATEAGSLEARLRESEQARALLEREAEEARRQLAALGQTEPLPAEAPWARRPVDPRRRSLPAGDALYLSFNPPQPSRGTDRLDLPVTTRSVHRNFEDRERQELGSPEERLQDSSDPDTGSEEEGSSRLSPPHSPRDFTRMQDIPEETESRDGEAVASES
B6: CCT7 (protein)
chain: MDKLIVDGRGKATISNDGATILKLLDVVHPAAKTLVDIAKSQDAEVGDGTTSVTLLAAEFLKQVKPYVEEGLHPQIIIRAFRTATQLAVNKIKEIAVTVKKADKVEQRKLLEKCAMTALSSKLISQQKAFFAKMVVDAVMMLDDLLQLKMIGIKKVQGGALEDSQLVAGVAFKKTFSYAGFEMQPKKYHNPKIALLNVELELKAEKDNAEIRVHTVEDYQAIVDAEWNILYDKLEKIHHSGAKVVLSKLPIGDVATQYFADRDMFCAGRVPEEDLKRTMMACGGSIQTSVNALSADVLGRCQVFEETQIGGERYNFFTGCPKAKTCTFILRGGAEQFMEETERSLHDAIMIVRRAIKNDSVVAGGGAIEMELSKYLRDYSRTIPGKQQLLIGAYAKALEIIPRQLCDNAGFDATNILNKLRARHAQGGTWYGVDINNEDIADNFEAFVWEPAMVRINALTAASEAACLIVSVDETIKNPRSTVDAPTAAGRGRGRGRPH
B7: MSN (protein)
chain: PKTISVRVTTMDAELEFAIQPNTTGKQLFDQVVKTIGLREVWFFGLQYQDTKGFSTWLKLNKKVTAQDVRKESPLLFKFRAKFYPEDVSEELIQDITQRLFFLQVKEGILNDDIYCPPETAVLLASYAVQSKYGDFNKEVHKSGYLAGDKLLPQRVLEQHKLNKDQWEERIQVWHEEHRGMLREDAVLEYLKIAQDLEMYGVNYFSIKNKKGSELWLGVDALGLNIYEQNDRLTPKIGFPWSEIRNISFNDKKFVIKPIDKKAPDFVFYAPRLRINKRILALCMGNHELYMRRRKPDTIEVQQMKAQAREEKHQKQMERAMLENEKKKREMAEKEKEKIEREKEELMERLKQIEEQTKKAQQELEEQTRRALELEQERKRAQSEAEKLAKERQEAEEAKEALLQASRDQKKTQEQLALEMAELTARISQLEMARQKKESEAVEWQQKAQMVQEDLEKTRAELKTAMSTPHVAEPAENEQDEQDENGAEASADLRADAMAKDRSEEERTTEAEKNERVQKHLKALTSELANARDESKKTANDMIHAENMRLGRDKYKTLRQIRQGNTKQRIDEFESM
B8: CD70 (protein)
chain: MPEEGSGCSVRRRPYGCVLRAALVPLVAGLVICLVVCIQRFAQAQQQLPLESLGWDVAELQLNHTGPQQDPRLYWQGGPALGRSFLHGPELDKGQLRIHRDGIYMVHIQVTLAICSSTTASRHHPTTLAVGICSPASRSISLLRLSFHQGCTIASQRLTPLARGDTLCTNLTGTLLPSRNTDETFFGVQWVRP

Target: T1, B3GNT2
Test: Co-IP of FLAG-tagged B3GNT2 followed by mass spectrometry
Assay type: cell-based
Parameters: C-term IgG / C-term flag: unit not given here
Details: mass spectrometry count, unit not given; for C-term flag / N-term FLAG: Co-IP with FLAG antibody; for C-term flag / C-term IgG: C-terminally FLAG-tagged B3GNT2; for N-term FLAG / N-term IgG: N-terminally FLAG-tagged B3GNT2; for C-term IgG / N-term IgG: Co-IP with IgG control antibody
How it was run: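 FLAG-tagged B3GNT2 immunoprecipitated from cell lysate (HEPES, 1% Triton X-100, 150 mM NaCl) with anti-FLAG versus […], overnight at 4° C, then captured on Protein A/G magnetic beads for 4 h. Two biological replicates per condition. Peptides fractionated and analyzed by nano-LC on an Orbitrap Elite in data-dependent mode.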

Molecule | C-term flag | N-term FLAG | C-term IgG | N-term IgG
B1 | 0 | 2 | 0 | 0
B2 | 2 | 0 | 0 | 0
B3 | 6 | 10 | 2 | 0
B4 | 30 | 19 | 3 | 6
B5 | 2 | 0 | 0 | 0
B6 | 2 | 0 | 0 | 0
B7 | 4 | 3 | 0 | 0
B8 | 2 | 0 | 0 | 0
